Experimental findings from patent US20240261378 are described below.

In the data set the target is TRIM16 GST-fusion protein (substrate of the ULK1 kinase assay).

B1: Flag-ULK1 wt (protein)
chain: MEPGRGGTETVGKFEFSRKDLIGHGAFAVVFKGRHREKHDLEVAVKCINKKNLAKSQTLLGKEIKILKELKHENIVALYDFQEMANSVYLVMEYCNGGDLADYLHAMRTLSEDTIRLFLQQIAGAMRLLHSKGIIHRDLKPQNILLSNPAGRRANPNSIRVKIADFGFARYLQSNMMAATLCGSPMYMAPEVIMSQHYDGKADLWSIGTIVYQCLTGKAPFQASSPQDLRLFYEKNKTLVPTIPRETSAPLRQLLLALLQRNHKDRMDFDEFFHHPFLDASPSVRKSPPVPVPSYPSSGSGSSSSSSSTSHLASPPSLGEMQQLQKTLASPADTAGFLHSSRDSGGSKDSSCDTDDFVMVPAQFPGDLVAEAPSAKPPPDSLMCSGSSLVASAGLESHGRTPSPSPPCSSSPSPSGRAGPFSSSRCGASVPIPVPTQVQNYQRIERNLQSPTQFQTPRSSAIRRSGSTSPLGFARASPSPPAHAEHGGVLARKMSLGGGRPYTPSPQVGTIPERPGWSGTPSPQGAEMRGGRSPRPGSSAPEHSPRTSGLGCRLHSAPNLSDLHVVRPKLPKPPTDPLGAVFSPPQASPPQPSHGLQSCRNLRGSPKLPDFLQRNPLPPILGSPTKAVPSFDFPKTPSSQNLLALLARQGVVMTPPRNRTLPDLSEVGPFHGQPLGPGLRPGEDPKGPFGRSFSTSRLTDLLLKAAFGTQAPDPGSTESLQEKPMEIAPSAGFGGSLHPGARAGGTSSPSPVVFTVGSPPSGSTPPQGPRTRMFSAGPTGSASSSARHLVPGPCSEAPAPELPAPGHGCSFADPITANLEGAVTFEAPDLPEETLMEQEHTEILRGLRFTLLFVQHVLEIAALKGSASEAAGGPEYQLQESVVADQISLLSREWGFAEQLVLYLKVAELLSSGLQSAIDQIRAGKLCLSSTVKQVVRRLNELYKASVVSCQGLSLRLQRFFLDKQRLLDRIHSITAERLIFSHAVQMVQSAALDEMFQHREGCVPRYHKALLLLEGLQHMLSDQADIENVTKCKLCIERRLSALLTGICA
Regarding B1, the “in vitro phosphorylation (γ32P ATP, autoradiography), wt vs kinase-dead K46I ULK1” value was “comparing active vs. kinase dead ULK1 we established that TRIM16 was a substrate for ULK1 phosphorylation”.
